Test results published in patent EP4424820A1.

Biological target: NRPS-13 subunit B: SZ18 at the N-terminus of the C-terminal part of XtpS, split in the A-T linker of module two (Xenorhabdus nematophila ATCC 19061)
Assay: cell-based or functional assay

NRPS-13 subunit B: SZ18 at the N-terminus of the C-terminal part of XtpS, split in the A-T linker of module two (Xenorhabdus nematophila ATCC 19061), sequence (chain, as listed by the source): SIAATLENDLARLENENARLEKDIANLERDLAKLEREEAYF

NRPS-13 subunit A: N-terminal part of XtpS, split in the A-T linker of module two, with SZ17 at its C-terminus (enzyme)
peptide yield of xenotetrapeptide 1 by the split synthetase NRPS-13 produced in E. coli DH10B::mtaA (HPLC-MS/MS): 155 mg/L
